Source: IntAct's records for PubMed 31831856

B1: Iron-sulfur cluster assembly factor IBA57, mitochondrial (Homo sapiens), Q5T440 (parent)
chain: MATAALLRGATPGRGGPVWRWRLRAAPRCRLAHSSCSPGGDPTAGAAWACFRLDGRTLLRVRGPDAAPFLLGLLTNELPLPSPAAAGAPPAARAGYAHFLNVQGRTLYDVILYGLQEHSEVSGFLLECDSSVQGALQKHLALYRIRRKVTVEPHPELRVWAVLPSSPEACGAASLQERAGAAAILIRDPRTARMGWRLLTQDEGPALVPGGRLGDLWDYHQHRYLQGVPEGVRDLPPGVALPLESNLAFMNGVSFTKGCYIGQELTARTHHMGVIRKRLFPVRFLDPLPTSGITPGATVLTASGQTVGKFRAGQGNVGLALLWSEKIKGPLHIRASEGAQVALAASVPDWWPTVSK
partner: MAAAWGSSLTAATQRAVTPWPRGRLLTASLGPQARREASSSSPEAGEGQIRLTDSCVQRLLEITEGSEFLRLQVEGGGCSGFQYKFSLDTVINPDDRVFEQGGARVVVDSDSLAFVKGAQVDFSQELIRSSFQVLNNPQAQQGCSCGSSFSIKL

Variants of: B1
Details: with isca2_human ISCA2, Q86U28

Variant	effect of a mutation on the interaction
MATAALLRGATPGRGGPVWRWRLRAAPRCRLAHSSCSPGGDPTAGAAWACFRLDGRTLLRVRGPDAAPFLLGLLTNELPLPSPAAAGAPPAARAGYAHFLNVQGRTLYDVILYGLQEHSEVSGFLLECDSSVQGALQKHLALYRIWRKVTVEPHPELRVWAVLPSSPEACGAASLQERAGAAAILIRDPRTARMGWRLLTQDEGPALVPGGRLGDLWDYHQHRYLQGVPEGVRDLPPGVALPLESNLAFMNGVSFTKGCYIGQELTARTHHMGVIRKRLFPVRFLDPLPTSGITPGATVLTASGQTVGKFRAGQGNVGLALLWSEKIKGPLHIRASEGAQVALAASVPDWWPTVSK [R146W]	disrupting interaction strength
